For orientation: Kd means the constant that tells how readily two partners part at equilibrium.

Data on 3 molecules can be found in publication PMC3348928, “Ordered Self-Assembly Mechanism of a Spherical Oncoprotein Oligomer Triggered by Zinc Removal and Stabilized by an Intrinsically Disordered Domain” (PLoS ONE, 2012).

For series [1], the target named is E7 (Human papillomavirus type 16) (UniProt P03129). As to conditions: cited from earlier work.
The target of series [2] is Recombinant E7 HPV-16 protein (human papillomavirus type 16 E7 oncoprotein) (human papillomavirus type 16) (UniProt P03129). In words: thioflavin T fluorescence kinetics; 10 mM sodium phosphate pH 7.0, 1 mM DTT, 20 µM ThT; triggered by 1.0 mM TPEN; 15 µM protein.
The target is the same in series [3]. In words: thioflavin T fluorescence kinetics; 10 mM sodium phosphate pH 7.0, 1 mM DTT, 20 µM ThT; triggered by 1.0 mM EDTA; 15 µM protein (Figure 3).
The target is the same in series [4]. The experiment in a line: thioflavin T fluorescence kinetics; ThT traces at different initial E7 concentrations after EDTA, analysed with the kinetically limited (KL) assembly model of Zlotnick; 10 mM sodium phosphate pH 7.0, 1 mM DTT, 20 µM ThT.
Series [5] deals with the molecule itself. In words: dynamic light scattering; 15 µM protein, 10 mM sodium phosphate pH 7.0, 1.0 mM DTT, 25°C; after addition of 1.0 mM EDTA (zinc removal); E7 at the plateau, E7C after 2 h and 24 h.

Some results are limits rather than exact numbers.

E7 (from UniProt P03129): the Kd in series [1] was 1000 nM.

As to “Recombinant E7 HPV-16 protein (human papillomavirus type 16 E7 oncoprotein) (from UniProt P03129 1-98) (natural protein)”, the half-life of the slow oligomerization phase, TPEN in series [2] is below 6 min. Besides, in series [3], the half-life of the slow increase in ThT binding (oligomerisation phase) turned out to be 10 min and the half-life of the slow oligomerization phase, EDTA is below 8 min. For the same molecule, in series [4], the overall average time for each monomer added at 20 µM worked out at 28 s and the z-nucleus size n (KL model) worked out at 1.2.

B1: E7 HPV-16 C-terminal domain, spanning residues 40-98 (domain or fragment, human papillomavirus type 16, UniProt P03129 40-98, looked up)
chain: GPAGQAEPDRAHYNIVTFCCKCDSTLRLCVQSTHVDIRTLEDLLMGTLGIVCPICSQKP
notes: The introduction gives 58 amino acids for E7C, but residues 40-98 are 59; also called E7C; source: recombinant, expressed and purified as previously described [52]
Turning to B1, the binding result in series [5] is listed as “binds”.
